Legend:
[1] = target: Stat1tc, phosphorylated Tyr701 (Homo sapiens) (UniProt P42224); experiment: EMSA
[2] = target: T1, Stat1alpha, phosphorylated Tyr701 (Homo sapiens, UniProt P42224 P42224:1-750); experiment: EMSA; stabilization indistinguishable from 10 bp spacing; conditions: tags: baculovirus/Sf9; NEM-alkylated; phosphorylated in vitro by EGF-receptor kinase; chain copies: 2; label: 32P; protruding 5'-TCC; two tandem sites
Experimental: (§1) Under the reaction conditions described above, each oligonucleotide (at 2×10^-9 M or otherwise stated) was mixed with 0.55×10^-9 M dimer of purified phosphorylated Stat1 protein. The reaction volume was scaled up to 100 μl. The reaction was incubated for 5–15 min at room temperature and for time zero, an aliquot (10 μl) was removed and loaded directly onto a pre-run polyacrylamide gel (see above). Afterwards, a 100×molar excess of homologous unlabelled DNA (in less than 1% of the reaction volume) was added. At subsequent time points (indicated in FIGS. 5C–5D, and 7) 10 μl aliquots were withdrawn and also loaded onto the running gel (at 10 V/cm). After entering the final time point (after 30–45 min), electrophoresis was continued at 20 V/cm until the unbound labelled DNA-fraction reached the bottom of the gel. Gels were dried, exposed to X-ray film and labelled protein/DNA complexes and unbound labelled DNA were quantitated as described above. The half life was determined from a semi-log plot of the numerical data (shifted radioactivity over shifted radioactivity at time zero versus time). For many sequences studied, the half life was too short ([…]) to be determined by EMSA. All experiments were performed at least twice with the different oligonucleotides.
Figure 7B: FIG. 7B. […]

[3] = target: T1, Stat1alpha, phosphorylated Tyr701; experiment: EMSA; binding unaffected by NEM alkylation; no difference from Stat1tc in off-rate; conditions: tags: baculovirus/Sf9; NEM-alkylated; phosphorylated in vitro by EGF-receptor kinase; chain copies: 2; label: 32P; protruding 5'-TCC
Text: Figure 3A: FIG. 3A. DNA binding of purified phosphorylated Stat1α (lane 1) and Stat1tc (lane 2) using as a probe the radioactively labelled cfosWT sequence. Binding reactions contained equimolar amounts of the respective proteins. The position of migration of the free DNA probe (free) and the protein/DNA complex (bound) is indicated. Note the presence of a slower migrating band only with the full length Stat1α, lane 1 (see also FIG. 3B). Figure 3B: FIG. 3B. Influence of cysteine alkylation on the DNA binding activity of Stat1α. A mixture of phosphorylated and unphosphorylated protein (0.23 µM final; ~15% phosphoprotein) was reacted in the presence of 0.8 mM DTT and the indicated concentrations of N-ethyl-maleimide (NEM) for 20 min at room temperature in a volume of 12.5 µl. The reaction was stopped with DTT (final concentration of 10 mM) followed by the addition of 1.5 pmoles of labelled probe (cfosM67). Samples were resolved on a 4.5% native polyacrylamide gel. (M) denotes the position of bromophenol blue (lower) and xylene cyanol (upper) markers.
Electrophoretic mobility shift assays (EMSA) (Fried and Crothers, 1981; Garner and Revzin, 1981) were used to test DNA binding of tyrosine phosphorylated Stat1α and Stat1tc. […] In addition, the DNA binding ability of homodimeric phosphorylated Stat1α or its truncated form was highly resistant to up to 2 Molar monovalent salt concentrations.

[4] = target: T1, Stat1alpha, phosphorylated Tyr701; experiment: EMSA; 2x(dimer) complex stable, >30 min for partial displacement by 100x competitor; conditions: tags: baculovirus/Sf9; NEM-alkylated; phosphorylated in vitro by EGF-receptor kinase; chain copies: 2; label: 32P; protruding 5'-TCC; two tandem sites
Experimental: as §1, with “oligonucleotides. […]” for “oligonucleotides.”

[5] = target: Stat1beta, phosphorylated Tyr701 (Homo sapiens, UniProt P42224-2 P42224-2:1-712); experiment: EMSA; 2x(dimer) complex stabilized as with Stat1alpha; conditions: tags: baculovirus/Sf9; NEM-alkylated; phosphorylated in vitro by EGF-receptor kinase; chain copies: 2; label: 32P; protruding 5'-TCC; two tandem sites
Sequence of Stat1beta, phosphorylated Tyr701 (P42224 1-712, one chain of several): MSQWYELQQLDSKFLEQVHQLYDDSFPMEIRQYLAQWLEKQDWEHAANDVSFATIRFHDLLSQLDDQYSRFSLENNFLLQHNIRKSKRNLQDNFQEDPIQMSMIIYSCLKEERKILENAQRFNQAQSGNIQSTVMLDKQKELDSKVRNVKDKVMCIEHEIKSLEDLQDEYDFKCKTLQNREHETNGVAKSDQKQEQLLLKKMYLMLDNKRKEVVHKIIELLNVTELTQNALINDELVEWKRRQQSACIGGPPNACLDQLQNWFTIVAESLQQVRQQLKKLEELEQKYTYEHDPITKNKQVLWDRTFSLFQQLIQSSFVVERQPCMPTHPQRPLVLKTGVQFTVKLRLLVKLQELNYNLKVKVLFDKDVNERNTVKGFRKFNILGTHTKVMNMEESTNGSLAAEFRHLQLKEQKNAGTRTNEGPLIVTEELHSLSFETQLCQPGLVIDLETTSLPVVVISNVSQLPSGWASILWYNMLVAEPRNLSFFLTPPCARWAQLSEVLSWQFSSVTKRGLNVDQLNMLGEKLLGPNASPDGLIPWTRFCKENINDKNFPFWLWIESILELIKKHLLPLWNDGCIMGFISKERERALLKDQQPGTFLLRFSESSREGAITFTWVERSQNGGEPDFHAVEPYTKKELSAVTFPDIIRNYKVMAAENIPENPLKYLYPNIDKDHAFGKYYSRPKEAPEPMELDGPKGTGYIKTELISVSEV

[6] = target: T1, Stat1alpha, phosphorylated Tyr701; experiment: EMSA; apparent Keq, dimer; 40 mM KCl, 10 mM MgCl2, 10 mM CaCl2, RT; complex half-life <0.5 min; conditions: tags: baculovirus/Sf9; NEM-alkylated; phosphorylated in vitro by EGF-receptor kinase; chain copies: 2; label: 32P; protruding 5'-TCC

Sequence of Stat1tc, phosphorylated Tyr701 (Homo sapiens) (P42224 whole entry): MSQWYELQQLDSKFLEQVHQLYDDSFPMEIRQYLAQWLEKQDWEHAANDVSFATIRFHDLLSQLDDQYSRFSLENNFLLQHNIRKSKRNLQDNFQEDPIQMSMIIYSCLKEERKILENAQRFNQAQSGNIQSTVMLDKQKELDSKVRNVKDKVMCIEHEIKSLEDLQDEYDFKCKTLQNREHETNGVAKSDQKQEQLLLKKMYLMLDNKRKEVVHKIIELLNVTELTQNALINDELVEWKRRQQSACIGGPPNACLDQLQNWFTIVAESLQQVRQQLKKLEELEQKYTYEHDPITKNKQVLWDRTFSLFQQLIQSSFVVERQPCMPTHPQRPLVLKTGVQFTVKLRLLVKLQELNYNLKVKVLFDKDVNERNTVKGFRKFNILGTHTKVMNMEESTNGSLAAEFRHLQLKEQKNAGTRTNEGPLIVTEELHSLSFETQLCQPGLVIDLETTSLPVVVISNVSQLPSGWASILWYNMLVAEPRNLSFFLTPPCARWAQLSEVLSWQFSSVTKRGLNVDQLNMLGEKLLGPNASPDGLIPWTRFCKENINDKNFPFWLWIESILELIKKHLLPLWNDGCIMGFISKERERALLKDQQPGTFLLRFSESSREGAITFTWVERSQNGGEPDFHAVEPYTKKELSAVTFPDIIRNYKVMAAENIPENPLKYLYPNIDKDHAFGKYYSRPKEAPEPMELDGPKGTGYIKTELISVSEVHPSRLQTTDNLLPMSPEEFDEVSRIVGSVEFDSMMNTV
T1 sequence (P42224 whole entry, one chain of several): as the sequence (P42224 whole entry) above

**Q.** With “GTATTCCTGTAAGATCT (double strand) [Ly6E]” as the molecule, how does the Kd ([1]; dimer concentration at half saturation, weak site) read?
**A.** 1 nM

**Q.** Which Kd ([1]; apparent Keq, dimer, 40 mM KCl, 10 mM MgCl2, 10 mM CaCl2, RT) does the source give for “GTATTCCCGTCAATGCA (double strand) [cfosWT]” here?
**A.** 1 nM

**Q.** How did the Kd ([1]; dimer concentration at half saturation, strong site) turn out when GTTGTTCCGGGAAAAGG (double strand) [S1] was run?
**A.** 1 nM

**Q.** For “GATTTCCCGTAAATCAT (double strand) [cfosM67]”, which Kd ([1]; stated as same result for several oligonucleotides, complex half-life about 3 min (FIG. 5D)) is on record?
**A.** 1 nM

B1: 2x cfosWT (15 bp spacing) (dsDNA)
DNA 1: AGTCAGTTCCCGTCAATGATCGCTACAGAGTTCCCGTCAAGCA
DNA 2: TGCTTGACGGGAACTCTGTAGCGATCATTGACGGGAACTGACT
**Q.** Does B1 bind [2]?
**A.** binds

B2: cfosM67 (dsDNA)
DNA 1: GATTTCCCGTAAATCAT
DNA 2: ATGATTTACGGGAAATC
**Q.** Does B2 bind [3]?
**A.** binds

B3: 2x cfosWT (10 bp spacing) (dsDNA)
DNA 1: AGTCAGTTCCCGTCAATGCATCAGGTTCCCGTCAATGCAT
DNA 2: ATGCATTGACGGGAACCTGATGCATTGACGGGAACTGACT
**Q.** Does B3 bind [4]?
**A.** binds

**Q.** Does B3 bind [5]?
**A.** binds

B4: cfosWT (dsDNA)
DNA 1: GTATTCCCGTCAATGCA
DNA 2: TGCATTGACGGGAATAC
**Q.** Which Kd [6] does the source give for B4 here?
**A.** ~1 nM
